Test results as given in the DeepSol protein solubility set.

Experiment: soluble on expression in E. coli; label from the status in PepcDB or PDB records

Sequence	soluble on expression in E. coli
MSKPLPLVTRQGDRIVIVNGLRTPFAKQATAYHGVPAVDLGKIVVSELLARSGISSELIDQLVFGQVVQMPEAPNIAREIVLGTGMSVHTDAYSVSRACATSFQAVANVAESIIAGSVDIAIAGGADSSSVLPIGVSKALARTLVDANKARSLSQKLKLFSRLRLRDLLPVAPAVAEYSTGLRMGDTAEQMAKTYGISREDQDALALRSHQLAAEAWQQGWLHDEVMTAYIPPYREAIIEDNNIRKDSTLAQYAKLRPAFDRQHGSVTAANSTPLTDGAAAVLMMSESKAKALGLPPLGYLRSFAFSAIDVWQDMLLGPSYATPLALDRAGITLADLTLIDMHEAFAAQTLANLKMFASDTFAREKLGRSQAIGEVDMSKFNVLGGSIAYGHPFAATGARMITQTLNELRRRGGGLGLTTACAAGGLGAAMILEVE	not soluble
MSKRILFIVGSFSEGSFNRQLAKKAETIIGDRAQVSYLSYDRVPFFNQDLETSVHPEVAHAREEVQEADAIWIFSPVYNYAIPGPVKNLLDWLSRSLDLSDPTGPSVLQDKIVTVSSVANGASPEEVFEDYRSLLPFIRMHLVDQLTGVPINSEAWSTGILKVSAEKLAELSAQADALLSAIENLEHHHHHH	soluble
MSKSNQKIASIEQLSNNEGIISALAFDQRGALKRMMAKHQTEEPTVAQIEQLKVLVAEELTQYASSILLDPEYGLPASDARNKDCGLLLAYEKTGYDVNAKGRLPDCLVEWSAKRLKEQGANAVKFLLYYDVDDAEEINIQKKAYIERIGSECVAEDIPFFLEVLTYDDNIPDNGSVEFAKVKPRKVNEAMKLFSEPRFNVDVLKVEVPVNMKYVEGFAEGEVVYTKEEAAQHFKDQDAATHLPYIYLSAGVSAELFQETLKFAHEAGAKFNGVLCGRATWSGAVQVYIEQGEDAAREWLRTTGFKNIDDLNKVLKDTATSWKQRK	soluble
MSKSSYYAPHGGHPAQTELLTDRAMFTEAYAVIPKGVMRDIVTSHLPFWDNMRMWVIARPLSGFAETFSQYIVELAPNGGSDKPEQDPNAEAVLFVVEGELSLTLQGQVHAMQPGGYAFIPPGADYKVRNTTGQHTRFHWIRKHYQKVDGVPLPEAFVTNEQDIQPLVMPDTEGRWSTTRFVDMSDMRHDMHVNIVNFEPGGVIPFAETHVMEHGLYVLEGKAVYRLNQDWVEVEAGDFMWLRAFCPQACYSGGPGRFRYLLYKDVNRHMRLTLNAPHLEHHHHHH	soluble
MSKTVTIRRPSPTKTSEEPAAHQTPIFTQTAAEMLGITSLNTEAAELLEFLSREKLKEIVRLSAKWTQKSARRRMAVADVEHAIRSTRQCGGLNISSVDTLNLGIQQLQPIQGTSTGIYSFLKSSADVDVDKEDTETFIKIPRDLRVISYPLVNEGQPVQSEYTVNVDEDDGNFFEKIVPEVMTMIPEKNTPSSSTTSSLQMFRDAVKTAKIDQKVGLKPSTIEILTVEQQIFMKDIITVCMGQDDKKRHEALYTLETDAGLQVFLPHLTERICKSISANISQRCLSLIIYAGRVLRSLSHNKACDMTVTLHHVLPALLSCCVGRNMCLRPETDNHWALRDFSAKTLVGLVRDQVDKHDAGRTARRLFDFSHRIFRDTGSSFSMIYGTVHILQEFVAGPKKAAWLLTELGETNARCKSHIESGSRIGASQLSIQEAQKLNQQILKCENSIRNRYNLQQQAPGVPINRRFH	not soluble
MSKVALFSHVSPDGDCIGSMLGIGLALEALGKEVAMFNPDPIPRNLSFLPGVDKITQSMPDPLPETLLFVDCADLQRVQLQREDLPADAVILNLDHHISNQNFGRINWVDSQAAASGELAYALVRRLNVELTQEIAANFYTALLTDTGSFKYANTTAKTHQIAGELMELEHHHHHH	not soluble
MSKVLELAKELGAEVIQTHTSWVLLLKDVVYKIKKPVNFGFLDYSTLEKRKEMCYKEVELNRRLCPWVYIGVVPISEVKGKWVIENDENVVEYAVKMRRIPDEAILSNRLDKTTEEDLKKVAKVVADFHVRAKRVDEFGKMEVMKYNTDENFAQTEKYIGITISKEDYDFIKRKTNEFYEKHADIFEKRIKEGRIRDGHGDIRTEHVAFLEEGVCIFDCIEFNDRFRYGDVLNDMCFLSMELEYFGREYLARAYEEEYRRISKDPDFDLMLPFFKCYRAYVRGKVNSFLLDDPNLTQEEKEKAKERATKFFKLARTYAEMIK	not soluble
MSKVVPIASLTPYQSKWTICARVTNKSQIRTWSNSRGEGKLFSLELVDESGEIRATAFNEQVDKFFPLIEVNKVYYFSKGTLKIANKQFTAVKNDYEMTFNNETSVMPCEDDHHLPTVQFDFTGIDDLENKSKDSLVDIIGICKSYEDATKITVRSNNREVAKRNIYLMDTSGKVVTATLWGEDADKFDGSRQPVLAIKGARVSDFGGRSLSVLSSSTIIANPDIPEAYKLRGWFDAEGQALDGVSISDLKS	soluble
MSLAAHYDGLEKRTGAPYYGKKAEKVCNCAECLVFRRDVETGRLRLSNAYFCKVRLCSMCAWRRSLKIASHNKLIVEEANREYKPSWIFLTLTVRNVDGDDLKQTITDMMKAWNRLFGYKVVKTSVLGYFRALEITKNHEQNTYHPHFHVLIPVKRSYFTGKRYIKQAEWTSLWKRAMKLDYTPIVHVQRVKGKKGIDAEGIEKEVRKEMEEQKAILEISKYPVKDTDVIRGNEVTEENLDTVYYLDDALNARRLIGYGGILKEIHKELNLTDAEDGDLVRIEEDDDAVANETFEVMARWHVGIKNYIIQEGHHHHHH	soluble
MSLAEIGVDAAFIDLLVETFYGRVLEHQTLGPVFDARLAGRWPEHMARMKQFWTAIAFKNGSYGGKPVQAHLGVQGMSAELFPQWLALFSVTLDDIAPSRKAHDWFMETAERIARSLTLSLFYNPAMDDPAVKREGHHHHHH	not soluble
MSLAERLNNDFQFIEVGRKDPKKKLLRQRKKEFVEIYEPFKPQQSVEQAHRCLGCGNPYCEWKCPVHNFIPNWLKLVSEGNILAAAELSHQTNTLPEVCGRVCPQDRLCEGACTLNDGFGAVTIGSVEKYITDTAFAMGWRPDMSKVKPTGKRVAIIGAGPAGLGCADVLVRAGVTPVVFDKNPEIGGLLTFGIPEFKLEKTVLSNRREVFTGMGIEFRLNTEVGKDVTMEQLLAEYDAVFMGMGTYTYMKGGFPGEDLPGVHDALDFLIANVNRNLGFEKSPEDFVDMQGKKVVVLGGGDTAMDCNRTSIRQGAKAVTCAYRRDEANMPGSRKEVKNAKEEGVKFLYNRQPIAIVGEDKVEGVKVVETRLGEPDARGRRSPEPIPGSEEILPADAVVIAFGFRPSPAPWFEQHGIQLDSQGRVVAPEKGKFKHQTSNPKVFAGGDMVRGSDLVVTAIFEGRTAAEGILDYLEVEGHHHHHH	soluble
MSLAESRLTKLGQELAADKEFSSLERFADLVEKLQASLEIDATTLAAILLKRQQGKRPLFYVGADPMIEAMEREKSRRRERRDDRRDGDRPARREFGGRDQENHDWDTYQLQVGRDQGVQVKDIVGALANELGLTKGSIGAIKLAQGHTFVQLPKAMSNDVSSKLRKLRIRQKEVGAVVCDFDDFRESRGGARREGGPRREGGRRPEGNREGGFRGGREGGREGGRGRGGEGRPFREGERRFERNRSGESSGSYRGERGHSRRREEAEGHHHHHH	not soluble
MSLAFHEGLAAHLATGVTTTCHAWAIDRADGVVMGFTDHDRGLVFEGIDFRADSGLSALALQRGTGLAVDNSEAIGALTDAAIREADIDAGRFDGAGVRAWLVNWTDVAQRQLMFRGTIGEIRRAGGAFTAELRGLTEALNQPRGRVYQTPCGAVLGDAACGVDLGAPGYAAEAEVLGVEEGQRLVLPGLPDFEAGWFARGRLVVLDGAAEGLSGVVKRDVIAEGARHVDLWQALRAPLSVGDRIRIEAGCDKRMETCRYKFNNLLNYQGFPDIPGEDWMTVMPAQSGATGGGSRREGHHHHHH	soluble
MSLAFRTLSFGIKRSQPKKKDADDLNKKKELSTITEESLRRYDELREKMIGKVESKIEKKVKKNKKKASIEILASRKRVHDSDGDSENEVEETVGDVEKRMQKLLDDIRRTNRIFTWGDHLPNIILRFSDSSMSPSLLNRLSENSIRQPSPIQMQSIPFMTERRNVLASAPTGSGKTLAFALPVIDEILELKQRADYSSSNSSKLLAVVLEPTRELAAQTYTEFLKYCANTSISAANFSGEETDIQHADILVSTPNRIVFHLDKIDTSSLRWLVVDESDRLFEVVEGQDKCFRNQLAAIYKACDAKCTRVAFFSATFSHEVEKWCKENIDEIGMVCVGERNSSNTSVKQKLTYCGTEDGKKIAIRNLLRTSFKPPALVFVQSKDRAVQLVKLLSAIDSNLKVDSINSGKSDKERDETMERFRRGEIWVLVCTELLGRGLDLSDVGLVINYDLPTSIVSYIHRVGRTGRAGKSGHAVTYFTDADMKYIKSIATVIRQSGFDVPEYLMEMKKVSRDRKKDMLKHAPKRHKIAIVKEQVIKKKKMLAKAAAEEKAKNKTETQTAEKPEKKIKKKKLIKKNNKNI	not soluble
MSLAIKMLAIDLDGTLLTDSKTILPGTYKALQEAKAAGIKIVLTSGRPLSGIKGYAEELGLSGSEEYAILFNGAVVQNLDGRVLISHDLDFGDFNTLLHMQRLSDVNLDFETPDRFYTLDKRISIRLQIDGAETKNQLWIQDRSDFKKDFTFAKAVYQCDDPDQVDRLWNRLPDWFFQSYAVVRSWPEVVEVGSLAASKGYAVSELASRLGLSNSEVMIFGDQGNDRSMFEIPDFKRVAMGNAIDEIKDLADYVTDTNERDGIAKALRKLVLEGHHHHHH	soluble
MSLAIQPLAYRMRPKALDEIVGQTHLVGKDKIIYRMVKAKQLSSMILYGPPGIGKTSIASAIAGSTKYAFRTLNAVTNNKKDMEVVAAEAKMSGTVILLLDEVHRLDKAKQDFLLPLLESGAIILIGATTSNPYIAINPAIRSRTQIFELKPLTVEDIMITMDRALSDKERGLGNYDVEIDEVAKKHFATASNGDVRSALNALELAVISSEPNEDGVIHITLDVAEECLQKKSLAHDKDGDAHYDVLSAFQKSVRGSDVNAALHYMGRLIEAGDLVSISRRMLVMAYEDIGLASPQAGAHTLAAIQTAEKVGFPEARIPLANAVIELCLSPKSNSAIMAIDAALADIRQGKSGEVPDHLRDGHYSGAEKLGRAIDYKYPHNYDNAWVDQQYLPDRLKNKLYYAPKFTSKFEQTIAGVYQKINENKAKKEGHHHHHH	soluble
MSLAIRNVVFDVGNVIVKWAPQDIAQLTFGEGEESAFMATAVFKSEFWRDLNKGKYTEAEVKRALHQQLGLSSDTLEQLFFHIKNTQVLLPGTLQLMDDLLKAGYRLYALTDNVNEIVAYLKKQYGFWPKFTGAVVSSECGLLKPDPAIYQHLADSQRILPQESVFMDDMPANVEGARQQGFHAIQFVDAHQARVQLAQMGLHFKGQHFGEGHHHHHH	soluble
MSLAKKKEIKLEDALWKSADKLRKNIDAAEYKHIVLGLIFLRYISDSFMQKYEELLKEQDDGADPEDADEYLADNIFFVPEKSRYNYIRDNAKNPKIGKMLDEAMDEIEKHNDTLKGVLPKVYAKDNLDSKCLGELIDLIGNIAFDTGKSTDVLGHVFEYFLGEFALAEGKQGGQFYTPKCVVELLVTMLEPYKGRVFDPCCGSGGMFVQSEEFVKSHQGRLDDISIYGQESNQTTYKLAKMNLAIRKIESSQVIWNNEGSFLNDAHKDLKADFIIANPPFNDSDWSGELLENDGRWKYGVPPASNANYAWIQHFLYHLSPNGGVAGFVLAKGALTSNTTNEAAIRKALIEDDLIDCIVNLPAKLFLNTGIPASLWFIRRQKLPKTVKKTLFIDARDLGTRINRRNKTLNKDDINQIANIYKAWKNGTDYEDIKGFCKSVSIDEIRELSYVLTPGRYVGLADSDDEFDFDTRFNELLAKLKSQIKTEQELSEIILKNLEKIKEGHHHHHH	soluble
